The numbers were not newly measured in paper PMC10046553, which cites them from elsewhere.

This data set has as its target CD71 (transferrin receptor 1) (Homo sapiens) (UniProt P02786).

Chain of CD71 (transferrin receptor 1) (Homo sapiens) (P02786 89-760): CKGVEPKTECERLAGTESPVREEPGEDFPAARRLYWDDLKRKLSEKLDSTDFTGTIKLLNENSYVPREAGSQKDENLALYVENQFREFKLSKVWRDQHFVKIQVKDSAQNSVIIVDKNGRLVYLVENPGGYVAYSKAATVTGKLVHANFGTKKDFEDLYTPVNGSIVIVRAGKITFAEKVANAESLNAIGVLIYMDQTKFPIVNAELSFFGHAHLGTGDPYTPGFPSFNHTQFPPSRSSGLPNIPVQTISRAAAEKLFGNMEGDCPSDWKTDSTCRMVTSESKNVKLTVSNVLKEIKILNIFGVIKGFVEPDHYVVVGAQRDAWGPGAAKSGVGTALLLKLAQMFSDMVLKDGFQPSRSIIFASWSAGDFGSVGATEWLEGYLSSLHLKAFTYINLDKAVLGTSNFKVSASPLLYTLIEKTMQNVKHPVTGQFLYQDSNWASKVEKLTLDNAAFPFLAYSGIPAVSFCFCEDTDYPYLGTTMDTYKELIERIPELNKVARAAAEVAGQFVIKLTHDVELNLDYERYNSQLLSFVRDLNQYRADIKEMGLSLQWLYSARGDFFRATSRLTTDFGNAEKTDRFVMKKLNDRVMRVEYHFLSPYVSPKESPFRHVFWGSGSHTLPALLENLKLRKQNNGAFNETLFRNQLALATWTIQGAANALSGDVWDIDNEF

For the substance “Human serum albumin (from UniProt P02768)”, the Kd was 750 nM.
